# Measurements from IntAct's records for PubMed 24520911.
# B1: Lon protease homolog, mitochondrial (Homo sapiens), P36776 (parent)
# chain: MAASTGYVRLWGAARCWVLRRPMLAAAGGRVPTAAGAWLLRGQRTCDASPPWALWGRGPAIGGQWRGFWEASSRGGGAFSGGEDASEGGAEEGAGGAGGSAGAGEGPVITALTPMTIPDVFPHLPLIAITRNPVFPRFIKIIEVKNKKLVELLRRKVRLAQPYVGVFLKRDDSNESDVVESLDEIYHTGTFAQIHEMQDLGDKLRMIVMGHRRVHISRQLEVEPEEPEAENKHKPRRKSKRGKKEAEDELSARHPAELAMEPTPELPAEVLMVEVENVVHEDFQVTEEVKALTAEIVKTIRDIIALNPLYRESVLQMMQAGQRVVDNPIYLSDMGAALTGAESHELQDVLEETNIPKRLYKALSLLKKEFELSKLQQRLGREVEEKIKQTHRKYLLQEQLKIIKKELGLEKDDKDAIEEKFRERLKELVVPKHVMDVVDEELSKLGLLDNHSSEFNVTRNYLDWLTSIPWGKYSNENLDLARAQAVLEEDHYGMEDVKKRILEFIAVSQLRGSTQGKILCFYGPPGVGKTSIARSIARALNREYFRFSVGGMTDVAEIKGHRRTYVGAMPGKIIQCLKKTKTENPLILIDEVDKIGRGYQGDPSSALLELLDPEQNANFLDHYLDVPVDLSKVLFICTANVTDTIPEPLRDRMEMINVSGYVAQEKLAIAERYLVPQARALCGLDESKAKLSSDVLTLLIKQYCRESGVRNLQKQVEKVLRKSAYKIVSGEAESVEVTPENLQDFVGKPVFTVERMYDVTPPGVVMGLAWTAMGGSTLFVETSLRRPQDKDAKGDKDGSLEVTGQLGEVMKESARIAYTFARAFLMQHAPANDYLVTSHIHLHVPEGATPKDGPSAGCTIVTALLSLAMGRPVRQNLAMTGEVSLTGKILPVGGIKEKTIAAKRAGVTCIVLPAENKKDFYDLAAFITEGLEVHFVEHYREIFDIAFPDEQAEALAVER
# partner: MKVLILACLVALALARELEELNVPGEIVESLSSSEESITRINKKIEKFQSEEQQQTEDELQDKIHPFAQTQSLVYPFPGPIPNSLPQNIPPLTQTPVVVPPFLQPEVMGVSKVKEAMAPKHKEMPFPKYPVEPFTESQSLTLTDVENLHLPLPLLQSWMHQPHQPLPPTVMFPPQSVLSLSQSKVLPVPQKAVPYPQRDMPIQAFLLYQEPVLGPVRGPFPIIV
# Variants of: B1
# Details: with casb_bovin CSN2, P02666
row,effect of a mutation on the interaction,Variant
1,decreasing interaction,G893A;G894P

# Variants of: B1
# Details: with casb_bovin CSN2, P02666
# Remark: another data set of the same source
row,effect of a mutation on the interaction,Variant
1,decreasing interaction,G894P

# Variants of: B1
# Details: with casb_bovin CSN2, P02666
# Remark: another data set of the same source
row,effect of a mutation on the interaction,Variant
1,decreasing interaction,G893P

# Variants of: B1
# Details: with casb_bovin CSN2, P02666
# Remark: another data set of the same source
row,effect of a mutation on the interaction,Variant
1,decreasing interaction,G893P;G894A

# Variants of: B1
# Details: with casb_bovin CSN2, P02666
# Remark: another data set of the same source
row,effect of a mutation on the interaction,Variant
1,decreasing interaction,K529R

# Variants of: B1
# Details: with casb_bovin CSN2, P02666
# Remark: another data set of the same source
row,effect of a mutation on the interaction,Variant
1,decreasing interaction,W770P
